In series [1] the target is T1, CocE (Rhodococcus sp., UniProt Q9L9D7).
T1 construct: generating a full-length CocE gene encoding the T172R mutation; His6 (C); made in house; host or cells: E. coli (pET-22b(+))
Put plainly: Stabilization against 37° C.-induced formation of high molecular weight CocE aggregates (gel). The format is physicochemical, Rhodococcus sp. MB 1. The note with it: for 37° C.-induced formation of high molecular weight CocE aggregates: 0.1 mg/ml enzyme, mM range. As to the method:
(§1) Plasmids containing the mutations were transformed into E. coli BL21 cells and IPTG-induced enzyme was purified on Ni-Agarose. Expressed proteins were then tested for enzymatic activity and for thermostability at 37° C. Enzyme activity was measured using the spectrophotometric assay as described in Example 1. Thermostability was also tested via the spectrophotometric assay by pre-incubation of both wild-type and mutants at 37° C. for various times. Additionally, the nature of the thermo-instability of both the wild-type and T172R mutant was analyzed by polyacrylamide gel electrophoresis under denaturing and non-denaturing conditions. Briefly, mutant and wild-type enzyme at 0.1 mg/ml were incubated at 37° C. for various time-points, cooled to 4° C., mixed with SDS-loading dye containing-mercaptoethanol and run on 10% SDS-PAGE gels (denaturing conditions) or run on native 10% polyacrylamide gels (non-denaturing conditions) at 4° C. Gels were fixed with 10% methanol, 7% acetic acid for 30 minutes, and then stained with Sypro-Ruby protein gel stain (Molecular Probes, Invitrogen) for 3 hours. Protein staining was visualized under UV-light using an AlphaImager™ 3400 (Alpha Innotech). Finally, the exact melting temperature of both the wild-type and T172R mutant were determined by circular dichroism using a JASCO-810 spectropolarimeter driven by a JASCO V500/FP-750 analysis program for Windows. The CD spectra were measured in millidegrees and normalized against PBS buffer.
Cocaine esterase (CocE) cleaves cocaine to produce Benzoic acid and Ecgonine methyl ester. Briefly, alternative substrates and inhibitors of cocaine, as well as compounds able to thermostabilize the enzyme, were investigated generally by substituting amide and thiol analogues at the reactive ester bond, or removing the bond (for inhibitors), substituting benzoyl analogues in place of the benzoic acid leaving group, and/or removing or altering the methyl-ester group on the ecgonine portion of the molecule. As discussed below, it was determined that some substrates, products, and inhibitors stabilized thermal denaturation of wild type CocE, as well as prevented thermally-induced aggregation in gel electrophoresis.
Cocaine is the natural substrate of Cocaine esterase (CocE). Cocaine cleavage was monitored by a drop in absorbance at 240 nm. Cocaine (mM range) prevented 37° C.-induced formation of high molecular weight CocE aggregates (0.1 mg/ml enzyme concentrations) (see, e.g., FIG. 33). Cocaine (uM quantities) stabilized 37° C.-induced activity loss (see, e.g., FIG. 34), although the mechanism of this stabilization is complicated due to substrate inhibition at higher concentrations.

Series [2] deals with T1, CocE. Put plainly: Inhibition of CocE (cleavage of 4-nitrophenyl acetate). In kind it is biochemical, Rhodococcus sp. MB 1. On the procedure: Benzoic acid prevented 37° C.-induced formation of high molecular weight CocE aggregates (0.1 mg/ml enzyme concentrations) (see, e.g., FIG. 35). Benzoic acid (uM quantities) stabilized 37° C.-induced activity loss (see, e.g., FIG. 36), although the mechanism of this stabilization is complicated due to substrate inhibition at higher concentrations.
CocE catalyzes the cleavage of 4-nitrophenyl acetate (4NPA) to 4-nitrophenol (4NP) and acetate. The cleavage reaction was monitored by observation of product formation at 400 nm. Both 4NP and 4NPA (mM range) prevented 37° C.-induced formation of high molecular weight CocE aggregates (0.1 mg/ml enzyme concentrations).

Series [3] relates to WIN 35065-2 induced toxicity. The experiment in a line: WIN 35065-2 induced lethality in rats. The following applies: i.p., rats.
The subject of series [4] is cocaine-induced lethality. Put plainly: Rodent model of acute cocaine toxicity (convulsions and lethality) in rats.
The nature of series [5]: Melting temperature by circular dichroism (near-UV). In kind it is physicochemical. On the procedure:
as §1
Background: Circular dichroism is widely used to follow secondary structure.

Series [6] can be described thus: Non-denaturing polyacrylamide gel electrophoresis after incubation at 37° C. (aggregation). The following applies: non-denaturing gels, 0.1 mg/ml. The format is physicochemical. On the procedure:
as §1, with “Protein staining was visualized under UV-light using an AlphaImager™ 3400 (Alpha Innotech).” left out

Series [7] is described as follows: Low-UV CD spectra melt with CCA deconvolution. In kind it is physicochemical. The following applies: for #3 formation: accumulation of the fully melted protein; for #2 formation: formation of the intermediate state; for #1 melt: initial spectra melts, 0.2 mg/ml; for #2 melt: melt of the intermediate state. On the procedure:
Low-UV CD spectra data were obtained using an Aviv Spectropolarimeter Mode 400, with the help of Norma Greenfield, UMDNJ, using a 5-cell holder and 0.2 mg/ml protein concentrations. Raw data values obtained were blanked on control PBS, smoothed, and deconvoluted using the CCA algorithm as described by A. Perczel, K. Park, and G. D. Fasman, [Analysis of the circular dichroism spectrum of proteins using the convex constraint algorithm: a practical guide. Analytical Biochemistry 203, 83-93 (1992).] This algorithm finds the minimum number of curves needed to reconstruct a data set, and expresses the percentage each curve contributes to the data set as a function of temperature.
Below is presented a low UV CCA denconvolution analysis of CocE WT and 4 mutants, obtained in a single CD spectra melt using a 5-cell holder. The experiment was performed over the period of 8 hours, from 0-80° C.
Temperature dependent melting was observed between the wavelengths tested (200-250 nm), and the smoothed spectra for each mutant are shown in FIG. 29. […] Dose response analysis was used to approximate the temperature at which the initial spectra melts (1), the formation and melt of the intermediate state (2), and the accumulation of the fully melted protein (3).

Series [8] is described as follows: Cocaine spectrophotometric assay (240 nm), Michaelis-Menten kinetics.
For series [9] the following is noted: against (-) cocaine; cited from earlier work.

Where a chain is given by its changes, count along the chain named. In names and notes the source's numbering stands. Several values for one entry are separate records, joined by “and”; a condition that tells them apart may be missing. Equal values may be shown once. Read-outs that look alike come from different tables or passages of the source.

In the case of `O=[N+]([O-])c1ccc(O)cc1` [4NP, 4-nitrophenol], at CocE [1], the “37° C.-induced formation of high molecular weight CocE aggregates” value is “prevented”.
Same read-out and setting: the value for `CC(=O)Oc1ccc([N+](=O)[O-])cc1` [4NPA, 4-nitrophenyl acetate] was “prevented”.
For the molecule `OB(O)c1ccccc1` [Phenylboronic acid], at CocE [2], the inhibitory constant (Ki) (commonly a measure of affinity in units of concentration, obtained from inhibition or displacement) was 250 nM. The EC50 – broadly, the midpoint of the concentration-response curve – at CocE [1] is 200 nM.
On to `COC(=O)[C@H]1[C@@H](c2ccccc2)C[C@@H]2CC[C@H]1N2C` [WIN-35065-2, reference compound], for which the LD100 in [3] amounted to 560 mg/kg.

B1: T172R: mutant CocE polypeptide, SEQ ID NO: 25 (protein)
chain: MVDGNYSVASNVMVPMRDGVRLAVDLYRPDADGPVPVLLVRNPYDKFDVFAWSTQSTNWLEFVRDGYAVVIQDTRGLFASEGEFVPHVDDEADAEDTLSWILEQAWCDGNVGMFGVSYLGVTQWQAAVSGVGGLKAIAPSMASADLYRAPWYGPGGALSVEALLGWSALIGRGLITSRSDARPEDAADFVQLAAILNDVAGAASVTPLAEQPLLGRLIPWVIDQVVDHPDNDESWQSISLFERLGGLATPALITAGWYDGFVGESLRTFVAVKDNADARLVVGPWSHSNLTGRNADRKFGIAATYPIQEATTMHKAFFDRHLRGETDALAGVPKVRLFVMGIDEWRDETDWPLPDTAYTPFYLGGSGAANTSTGGGTLSTSISGTESADTYLYDPADPVPSLGGTLLFHNGDNGPADQRPIHDRDDVLCYSTEVLTDPVEVTGTVSARLFVSSSAVDTDFTAKLVDVFPDGRAIALCDGIVRMRYRETLVNPTLIEAGEIYEVAIDMLATSNVFLPGHRIMVQVSSSNFPKYDRNSNTGGVIAREQLEEMCTAVNRIHRGPEHPSHIVLPIIKR
modifications: Mutant CocE polypeptide
Take B1: the “duration of prophylactic effects” value in series [4] (0.32 mg given 1, 10, 30, 60 minutes before 320 mg/kg cocaine) is on record as “longer lasting than the wild-type CocE”. For the same molecule, the lethality entry in [4] (0.32 mg i.v. one minute after 1 g/kg cocaine i.p., rats) is recorded as “about 70%”. Also, in series [5], the “increased melting temperature compared to the wild-type CocE” value came to 5 degrees. The detectable denaturation beginning result in [5] (near-UV CD) is “approximately 28 °C”. The molecule further displayed a melting temperature in series [5] (near-UV CD (260-320 nm), curve-fitting) of 41.43 °C. The “half-life at 37° C. relative to the wildtype” value in series [6] is approximately 8 ×. Also, in series [7], the “#3 formation” value was determined as 56.85 °C, the “#2 formation” value was 38.11 °C, the “#1 melt” value was 39.22 °C and the “#2 melt” value was determined as 54.56 °C. Besides, in series [8] (40 min @ 37° C.), the Km – broadly, the concentration of substrate that gives half-maximal velocity – amounted to 78.8 µM. Moreover, in series [8] (no preincubation), the Km is 88.2 µM.

B2: T172R-F189K (protein, UniProt Q9L9D7 1-574, looked up, variant T172R F189K)
Cocaine esterase: B1 chain with F189K
Consider B2, for which, in series [7], the “#3 formation” value is 57.23 °C, the “#2 formation” value worked out at 46.81 °C, the “#1 melt” value was determined as 38.8 °C and the “#2 melt” value is 48.42 °C.

B3: T172R/A193D: mutant CocE polypeptide (protein, UniProt Q9L9D7 1-574, looked up, variant T172R A193D)
Cocaine esterase: B1 chain with A193D
For B3, in series [7], the “#3 formation” value is 58.72 °C, the “#2 formation” value turned out to be 46.47 °C, the “#1 melt” value is 38.11 °C and the “#2 melt” value came out at 47.68 °C.

B4: T172R/G173Q (protein, UniProt Q9L9D7 1-574, looked up, variant T172R G173Q)
Cocaine esterase: B1 chain with G173Q
For B4, in series [7], the “#3 formation” value is 56 °C and 56.61 °C; the “#2 formation” value came to 45.61 °C; the “#1 melt” value is 40 °C and 40.62 °C; the “#2 melt” value is 46 °C and 46.17 °C.

B5: S159A (protein)
chain: B1 chain with S159A, R172T
modifications: Mutant CocE polypeptide
As for B5, the Km in series [8] (40 min @ 37° C.) came out at 15.7 µM; in series [8] (no preincubation), 43.6 µM.

B6: Ala328W/Y332A: cocaine hydrolyzing enzyme of Sun et al., 2002a (genetically engineered BChE) (protein, UniProt P06276 29-602, looked up, variant A328W Y332A)
Cholinesterase: EDDIIIATKNGKVRGMNLTVFGGTVTAFLGIPYAQPPLGRLRFKKPQSLTKWSDIWNATKYANSCCQNIDQSFPGFHGSEMWNPNTDLSEDCLYLNVWIPAPKPKNATVLIWIYGGGFQTGTSSLHVYDGKFLARVERVIVVSMNYRVGALGFLALPGNPEAPGNMGLFDQQLALQWVQKNIAAFGGNPKSVTLFGESAGAASVSLHLLSPGSHSLFTRAILQSGSFNAPWAVTSLYEARNRTLNLAKLTGCSRENETEIIKCLRNKDPQEILLNEAFVVPYGTPLSVNFGPTVDGDFLTDMPDILLELGQFKKTQILVGVNKDEGTWFLVAGAPGFSKDNNSIITRKEFQEGLKIFFPGVSEFGKESILFHYTDWVDDQRPENYREALGDVVGDYNFICPALEFTKKFSEWGNNAFFYYFEHRSSKLPWPEWMGVMHGYEIEFVFGLPLERRDNYTKAEEILSRSIVKRWANFAKYGNPNETQNNSTSWPVFKSTEQKYLTLNTESTRIMTKLRAQQCRFWTSFFPKVLEMTGNIDEAEWEWKAGFHRWNNYMMDWKNQFNDYTSKKESCVGL
B6: in series [9], the Kcat is 2.57 s⁻¹ and the Km is 18 µM.
